From patent publication WO2018224439A1 (dated 2018)

What was measured:
human serum albumin [1] = biological target: T1, human serum albumin (human, UniProt P02768 25-609); test: SPR; sc02 against sc01; this end fits human SA pH 5.5 in Table 3
T1 construct: Coupled by amine chemistry to the SPR chip; also called HSA; human SA

cynomolgus serum albumin = biological target: T2, cynomolgus serum albumin (cynomolgus, UniProt A2V9Z4 25-608); test: SPR; sc02 against sc01; this end fits cynomolgus SA pH 5.5 in Table 3
T2 construct: also called cynomolgus SA

human serum albumin [2] = biological target: T1, human serum albumin; test: SPR; sc02 against sc01

Binder | fold improvement of affinity (STR graft over CDR graft) (human serum albumin [1]) | fold improvement of affinity (STR graft over CDR graft) (cynomolgus serum albumin) | fold improvement of affinity (STR graft over CDR graft) (human serum albumin [2])
19-01-H04-sc02 (scFv, V domains shown, Humanized scFv (STR graft); also called 19-01-H04-sc02 STR; 19-01-H04-SC02 STR) VH: EVQLVESGGGLVQPGGSLRLSCAASGFSLSSNAMGWVRQAPGKGLEYIGIISVGGFTYYASWAKGRFTISRDNSKNTVYLQMNSLRAEDTATYFCARDRHGGDSSGAFYLWGQGTLVTVSS VL: DIQMTQSPSSLSASVGDRVTITCQSSESVYSNNQLSWYQQKPGQPPKLLIYDASDLASGVPSRFSGSGSGTDFTLTISSLQPEDFATYYCAGGFSSSSDTAFGGGTKLTVLG | 20 to 300 fold | 20 to 300 fold | 
23-13-A01-sc02 (scFv, V domains shown, Humanized scFv (STR graft); also called 23-13-A01-sc02 STR; 23-13-A01-SC02 STR) VH: EVQLVESGGGLVQPGGSLRLSCAASGFSFSSSYWICWVRQAPGKGLEWVGCVFTGDGTTYYASWAKGRFTISRDNSKNTVYLQMNSLRAEDTATYFCARPVSVYYYGMDLWGQGTLVTVSS VL: DVVMTQSPSSLSASVGDRVTITCQASQIISSRSAWYQQKPGQPPKLLIYQASKLASGVPSRFSGSGSGTDFTLTISSLQPEDFATYYCQCTYIDSNFGAFGGGTKLTVLG |  |  | ~3 fold
